According to patent US20140302035A1 (MERRIMACK PHARMACEUTICALS, published 2014):

B1: Onartuzumab-39EGY4-2224 (bispecific antibody)
heavy: EVQLVESGGGLVQPGGSLRLSCAASGYTFTSYWLHWVRQAPGKGLEWVGMIDPSNSDTRFNPNFKDRFTISADTSKNTAYLQMNSLRAEDTAVYYCATYRSYVTPLDYWGQGTLVTVSSASTKGPSVFPLAPSSKSTSGGTAALGCLVKDYFPEPVTVSWNSGALTSGVHTFPAVLQSSGLYSLSSVVTVPSSSLGTQTYICNVNHKPSNTKVDKKVEPKSCDKTHTCPSCPAPEFLGGPSVFLFPPKPKDTLMISRTPEVTCVVVDVSQEDPEVQFNWYVDGVEVHNAKTKPREEQFNSKYRVVSVLTVLHQDWLNGKEYKCKVSNKGLPSSIEKTISKAKGQPREPQVYTLPPSREEMTKNQVSLSCAVKGFYPSDIAVEWESNGQPENNYKTTPPVLDSDGSFFLVSKLTVDKSRWQQGNVFSCSVMHEALHNHYTQKSLSLSKSCDKTGGGGSGGGGSGGGGSGGGGSGGGGSGGGGSGGGGSGGGGSCPSCPAPEFLGGPSVFLFPPKPKDTLMISRTPEVTCVVVDVSQEDPEVQFNWYVDGVEVHNAKTKPREEQFNSDYRVVSVLTVLHQDWLNGKEYKCKVSNKGLPSSIEKTISKAKGQPREPQVYTLPPSREEMTKNQVSLWCLVKGFYPSDIAVEWESNGQPENNYKTTPPVLDSDGSFFLYSKLTVDKSRWQQGNVFSCSVMHEALHNHYTQKSLSLSGECGGGGSGGGGSEVQLVQSGAEVKKPGSSVKVSCKASGGTFSSYAIGWVRQAPGQGLEWMGGIIPIFGIANYAQKFQGRVTITADESTSSAYMELSSLRSEDTAVYYCAREEGPYCSSTSCYAAFDIWGQGTLVTVSSASTGGGGSGGGGSGGGGSGGGGSQSVLTQDPAVSVALGQTVKITCQGDSLRSYFASWYQQKPGQAPTLVMYARNDRPAGVPDRFSGSKSGTSASLAISGLQPEDEADYYCAAWDDSLNGYLFGAGTKLTVL
light: DIQMTQSPSSLSASVGDRVTITCKSSQSLLYTSSQKNYLAWYQQKPGKAPKLLIYWASTRESGVPSRFSGSGSGTDFTLTISSLQPEDFATYYCQQYYAYPWTFGQGTKVEIKRTVAAPSVFIFPPSDEQLKSGTASVVCLLNNFYPREAKVQWKVDNALQSGNSQESVTEQDSKDSTYSLSSTLTLSKADYEKHKVYACEVTHQGLSSPVTKSFNRGEC
notes: Anti-c-Met Fab / TFc 39E glycoform 4 / anti-EGFR 2224 scFv; also called Onartuzumab-39EGY4-224; onartuzumab-39Egy-2224
B2: Onartuzumab-39EGY4-cetuximab (bispecific antibody)
heavy: EVQLVESGGGLVQPGGSLRLSCAASGYTFTSYWLHWVRQAPGKGLEWVGMIDPSNSDTRFNPNFKDRFTISADTSKNTAYLQMNSLRAEDTAVYYCATYRSYVTPLDYWGQGTLVTVSSASTKGPSVFPLAPSSKSTSGGTAALGCLVKDYFPEPVTVSWNSGALTSGVHTFPAVLQSSGLYSLSSVVTVPSSSLGTQTYICNVNHKPSNTKVDKKVEPKSCDKTHTCPSCPAPEFLGGPSVFLFPPKPKDTLMISRTPEVTCVVVDVSQEDPEVQFNWYVDGVEVHNAKTKPREEQFNSKYRVVSVLTVLHQDWLNGKEYKCKVSNKGLPSSIEKTISKAKGQPREPQVYTLPPSREEMTKNQVSLSCAVKGFYPSDIAVEWESNGQPENNYKTTPPVLDSDGSFFLVSKLTVDKSRWQQGNVFSCSVMHEALHNHYTQKSLSLSKSCDKTGGGGSGGGGSGGGGSGGGGSGGGGSGGGGSGGGGSGGGGSCPSCPAPEFLGGPSVFLFPPKPKDTLMISRTPEVTCVVVDVSQEDPEVQFNWYVDGVEVHNAKTKPREEQFNSDYRVVSVLTVLHQDWLNGKEYKCKVSNKGLPSSIEKTISKAKGQPREPQVYTLPPSREEMTKNQVSLWCLVKGFYPSDIAVEWESNGQPENNYKTTPPVLDSDGSFFLYSKLTVDKSRWQQGNVFSCSVMHEALHNHYTQKSLSLSGECGGGGSGGGGSQVQLVESGGGVVQPGESLRISCAVSGFSLTNYGVHWVRQAPGKGLEWLGVIWSGGNTDYNTPFTSRLTISKDNSKSTVYFQMNSLRAEDTAVYYCARALTYYDYEFAYWGQGTLVTVSSASTGGGGSGGGGSGGGGSGGGGSDIVLTQSPSSLSVTPGEKVTFTCRASQSIGTNIHWYQQKPGQSPKLLIKYASESISGVPSRFSGSGSGTDFTLTINSVEAEDAATYYCQQNNNWPTTFGQGTKLEIK
light: B1 light
notes: Anti-c-Met Fab / TFc 39E glycoform 4 / anti-EGFR cetuximab scFv
B3: Onartuzumab (antibody)
chain 1: not shown
chain 2: B1 light
chain 3: not shown
B4: Onartuzumab-39EGY4-panitumumab (bispecific antibody)
heavy: EVQLVESGGGLVQPGGSLRLSCAASGYTFTSYWLHWVRQAPGKGLEWVGMIDPSNSDTRFNPNFKDRFTISADTSKNTAYLQMNSLRAEDTAVYYCATYRSYVTPLDYWGQGTLVTVSSASTKGPSVFPLAPSSKSTSGGTAALGCLVKDYFPEPVTVSWNSGALTSGVHTFPAVLQSSGLYSLSSVVTVPSSSLGTQTYICNVNHKPSNTKVDKKVEPKSCDKTHTCPSCPAPEFLGGPSVFLFPPKPKDTLMISRTPEVTCVVVDVSQEDPEVQFNWYVDGVEVHNAKTKPREEQFNSKYRVVSVLTVLHQDWLNGKEYKCKVSNKGLPSSIEKTISKAKGQPREPQVYTLPPSREEMTKNQVSLSCAVKGFYPSDIAVEWESNGQPENNYKTTPPVLDSDGSFFLVSKLTVDKSRWQQGNVFSCSVMHEALHNHYTQKSLSLSKSCDKTGGGGSGGGGSGGGGSGGGGSGGGGSGGGGSGGGGSGGGGSCPSCPAPEFLGGPSVFLFPPKPKDTLMISRTPEVTCVVVDVSQEDPEVQFNWYVDGVEVHNAKTKPREEQFNSDYRVVSVLTVLHQDWLNGKEYKCKVSNKGLPSSIEKTISKAKGQPREPQVYTLPPSREEMTKNQVSLWCLVKGFYPSDIAVEWESNGQPENNYKTTPPVLDSDGSFFLYSKLTVDKSRWQQGNVFSCSVMHEALHNHYTQKSLSLSGECGGGGSGGGGSQVQLQESGPGLVKPSETLSLTCTVSGGSVSSGDYYWTWIRQSPGKGLEWIGHIYYSGNTNYNPSLKSRLTISIDTSKTQFSLKLSSVTAADTAIYYCVRDRVTGAFDIWGQGTMVTSSASTGGGGSGGGGSGGGGSGGGGSDIQMTQSPSSLSASVGDRVTITCQASQDISNYLNWYQQKPGKAPKLLIYDASNLETGVPSRFSGSGSGTDFTFTISSLQPEDEATYFCQHFDHLPLAFGGGTKVEIKRT
light: B1 light
notes: Anti-c-Met Fab / TFc 39E glycoform 4 / anti-EGFR panitumumab scFv
B5: Ab#13 (bispecific antibody)
heavy: QLQLQESGPGLVKPSETLSLTCTVSGGSISSSVYYWSWIRQPPGKGLEWIGVIYPSGNTYYSPSLKSRVTISVDTSKNQFSLKLSSVTAADTAVYYCARTIYDLFDIWGQGTMVTVSSASTKGPSVFPLAPSSKSTSGGTAALGCLVKDYFPEPVTVSWNSGALTSGVHTFPAVLQSSGLYSLSSVVTVPSSSLGTQTYICNVNHKPSNTKVDKKVEPKSCDKTHTCPSCPAPEFLGGPSVFLFPPKPKDTLMISRTPEVTCVVVDVSQEDPEVQFNWYVDGVEVHNAKTKPREEQFNSKYRVVSVLTVLHQDWLNGKEYKCKVSNKGLPSSIEKTISKAKGQPREPQVYTLPPSREEMTKNQVSLSCAVKGFYPSDIAVEWESNGQPENNYKTTPPVLDSDGSFFLVSKLTVDKSRWQQGNVFSCSVMHEALHNHYTQKSLSLSKSCDKTGGGGSGGGGSGGGGSGGGGSGGGGSGGGGSGGGGSGGGGSCPSCPAPEFLGGPSVFLFPPKPKDTLMISRTPEVTCVVVDVSQEDPEVQFNWYVDGVEVHNAKTKPREEQFNSDYRVVSVLTVLHQDWLNGKEYKCKVSNKGLPSSIEKTISKAKGQPREPQVYTLPPSREEMTKNQVSLWCLVKGFYPSDIAVEWESNGQPENNYKTTPPVLDSDGSFFLYSKLTVDKSRWQQGNVFSCSVMHEALHNHYTQKSLSLSGECGGGGSGGGGSDIVMTQSPSSLSASVGDKATITCRSTKSLLHSNGITYLYWYLQKPGKAPKLLIYQMSNLASGVPDRFSSSGSGTEFTLTISSVQPEDEGTYYCAQNLEIPRTFGQGTKLEIKRTPSHNSHQVPSAGGPTANSGTSGSQVQLQQSGGGLVKPGESVKISCAASGYTFTNYGMNWVKQAPGKGLKWMGWINTYTGESTYADDFKGRFTFSLETSASAAYLQINSLRPEDTAVYFCARFAIKGDYWGQGTTVTVSS
light: DIQMTQSPSSVSASVGDRVTITCRASQGISSWLAWYQQKPGKAPKLLIYAASSLQSGVPSRFSGSGSGTDFTLTISSLQPEDFATYYCLQANSFPPTFGGGTKVEIKRTVAAPSVFIFPPSDEQLKSGTASVVCLLNNFYPREAKVQWKVDNALQSGNSQESVTEQDSKDSTYSLSSTLTLSKADYEKHKVYACEVTHQGLSSPVTKSFNRGEC
notes: Anti-c-Met Fab / tandem Fc / anti-EpCAM scFv TFcBA; also called Antibody #13

Experiments:
cMet-his = biological target: T1, cMet-his (Homo sapiens (Human), UniProt P08581 25-933); assay: BLI (ForteBio Octet), antibody loaded on Protein A tips, his tagged cMET in solution, 1:1 model
T1 construct: also called his tagged cMET; Recombinant polyhistidine-tagged c-Met
Method: Protocol: All reagents are equilibrated and samples are brought to room temperature. Protein A sensor tips (Fortebio, #18-5010) are hydrated for 10 min in 1×PBS. Kinetic assays are run using the Octet software and procedure per manufacturer's instruction. Assay steps typically include: 1-2 min of equilibration in 1×PBS, 4 min of antibody loading (conc: 50 μg/mL in 1×PBS), 1-2 min of baseline stabilization, 4 min of antibody:antigen association, and 4 min of antibody:antigen dissociation. 1×PBS is used as the matrix throughout. Data are analyzed with Octet Data Analysis software, processed, and fit to the curve using 1:1 binding model to determine kinetic parameters (Kₐ, Kₒₙ and Koff)

[1] = biological target: T2, Human EpCAM-Fc-his tagged (human); assay: BLI (ForteBio Octet), repeat analysis, antibody on Protein A tips, recombinant polyhistidine-tagged EpCAM-Fc in solution, 1:1 model
T2 construct: also called Recombinant polyhistidine-tagged EpCAM-Fc; recombinant EpCAM
T2 sequence (chain, as listed by the source): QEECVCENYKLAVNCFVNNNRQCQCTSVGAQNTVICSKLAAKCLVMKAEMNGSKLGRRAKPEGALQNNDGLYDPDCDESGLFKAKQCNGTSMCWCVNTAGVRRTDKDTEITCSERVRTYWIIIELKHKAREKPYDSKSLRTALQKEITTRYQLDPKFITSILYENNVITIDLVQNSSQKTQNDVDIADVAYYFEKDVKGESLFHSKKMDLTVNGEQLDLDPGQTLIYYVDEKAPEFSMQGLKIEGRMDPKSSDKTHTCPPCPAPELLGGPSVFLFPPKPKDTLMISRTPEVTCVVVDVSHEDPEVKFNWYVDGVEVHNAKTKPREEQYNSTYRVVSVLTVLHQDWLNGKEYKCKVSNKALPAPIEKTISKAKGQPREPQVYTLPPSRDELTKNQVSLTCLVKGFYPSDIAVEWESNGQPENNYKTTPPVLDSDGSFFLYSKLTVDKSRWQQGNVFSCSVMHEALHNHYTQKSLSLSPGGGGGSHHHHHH
Method: (§1) For Octet analysis, all reagents and samples are brought to room temperature. Protein A sensor tips (ForteBio, #18-5010) are hydrated for 10 minutes in 1×PBS. Assay steps include: 1-2 minutes of equilibration in 1×PBS, 4 minutes of antibody loading (concentration of 50 μg/ml in 1×PBS), 1-2 minutes of baseline stabilization, 4 minutes of antibody:antigen association, and 4 minutes of antibody:antigen dissociation. 1×PBS is used as the matrix throughout. Data are analyzed with Octet Data Analysis software, processed, and fit to a 1:1 binding model to determine kinetic parameters (Kd, kₒₙ and kdiss).
Table A-3 describes a repeat analysis for Ab#5, Ab#7, and Ab#13. For the repeat experiment, Kd and kdiss values for Ab#5, Ab#7, and Ab#13 are substantially equivalent to those determined for Ab#5, Ab#7, and Ab#13 in the initial experiment.

[2] = biological target: T2, Human EpCAM-Fc-his tagged; assay: BLI (ForteBio Octet), antibody loaded on Protein A tips, recombinant polyhistidine-tagged EpCAM-Fc in solution, 1:1 model
Method: as §1
Table A-2 describes approximate EpCAM binding affinity and dissociation rate as determined for Ab#1, Ab#2, Ab#3, Ab#4, Ab#5, Ab#6, Ab#7, Ab#8, Ab#9, Ab#10, Ab#11, Ab#12, and Ab#13.

Row | Binder | Kd (cMet-his) | other results
1 | B1 | 1.29 nM | –
2 | B2 | 0.9 nM | –
3 | B3 | 1.2 nM | –
4 | B4 | 1.6 nM | –
5 | B5 | – | Kd [1]: 4.69 nM; koff [1]: 0.000323 s⁻¹; Kd [2]: 4.98 nM; koff [2]: 0.00036 s⁻¹
